Assay results published in PMC2686265, “ATP and MO25α Regulate the Conformational State of the STRADα Pseudokinase and Activation of the LKB1 Tumour Suppressor” (PLoS Biology, 2009).
Each block holds one molecule with its values, some of them ahead of it.

Legend:
STRADα = molecular target: T1, STRADα (Homo sapiens, UniProt Q7RTN6); test: TNP-ATP saturation binding (fluorescence); details: STRADα alone
T1 construct: wild-type and mutant forms of STRADα (residues 54–431) and MO25α (residues 1–341) were expressed individually as GST fusion proteins in E. coli; GST (cleaved yes); made in house; host or cells: E. coli
T1 sequence (Q7RTN6 54-431): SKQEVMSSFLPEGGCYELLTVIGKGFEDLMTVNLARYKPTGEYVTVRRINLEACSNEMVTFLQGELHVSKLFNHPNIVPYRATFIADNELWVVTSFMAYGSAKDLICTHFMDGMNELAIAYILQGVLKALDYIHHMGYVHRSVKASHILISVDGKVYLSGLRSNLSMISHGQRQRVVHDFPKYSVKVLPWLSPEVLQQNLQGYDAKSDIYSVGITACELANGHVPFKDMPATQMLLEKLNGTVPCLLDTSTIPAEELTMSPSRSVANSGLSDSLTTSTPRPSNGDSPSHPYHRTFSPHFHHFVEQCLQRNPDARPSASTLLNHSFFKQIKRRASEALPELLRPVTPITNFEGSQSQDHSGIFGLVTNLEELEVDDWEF
Description: (§1) Fluorescent measurements of TNP-ATP (Molecular Probes), were obtained at 25°C in assay buffer (with the addition of 0.5–1.0 mM MgCl2 where indicated) using 1-cm pathlength cuvettes in a VARIAN Cary Eclipse Fluorescence spectrophotometer (Varian). Fluorescence was recorded using a 410-nm/540-nm excitation/emission wavelengths from 500 to 600 nm. In all cases, signal from the TNP-ATP buffer control was subtracted as background. For all binding studies, STRADα and STRADα mutants were assayed at 2 µM. In cases where STRADα/MO25α complexes were assayed, wild-type or mutant MO25α (2 µM) were preincubated for at least 2 h at 4°C prior to a fluorescence binding experiment. For saturation binding experiments, concentrated stocks of TNP-ATP were added stepwise, covering a range of concentrations from 0.05 to 30 µM. For displacement experiments, the concentration of TNP-ATP was fixed at 5 µM, and ATP or ADP was titrated in, covering a range of concentrations from 0.05 to 500 µM.
(§2) All data were analysed using GraphPad-PRISM software (http://www.graphpad.com). […] In the displacement studies, equilibrium constant values for ATP and ADP were calculated by first determining the logEC50 value, using a standard dose-response equation: F x/F max = minimum+(maximum−minimum)/(1+10^([N]−logEC 50 ^)), where [N] equals the concentration of added nucleotide, and F x/F max represents the fractional occupancy. Equilibrium constants for the competing ATP and ADP (K d ^N), were fitted using the equation: logEC50 = log(10^logK d ^N × (1+[TNP−ATP]/K d ^TNP−ATP)).

STRADα/MO25α complex = molecular target: T2, STRADα/MO25α complex (Homo sapiens, UniProt Q7RTN6); test: TNP-ATP saturation binding (fluorescence); details: No Mg2+
T2 construct: wild-type and mutant forms of STRADα (residues 54–431) and MO25α (residues 1–341) were expressed individually as GST fusion proteins in E. coli; GST (cleaved yes); made in house; host or cells: E. coli
T2 sequence (Q7RTN6 54-431): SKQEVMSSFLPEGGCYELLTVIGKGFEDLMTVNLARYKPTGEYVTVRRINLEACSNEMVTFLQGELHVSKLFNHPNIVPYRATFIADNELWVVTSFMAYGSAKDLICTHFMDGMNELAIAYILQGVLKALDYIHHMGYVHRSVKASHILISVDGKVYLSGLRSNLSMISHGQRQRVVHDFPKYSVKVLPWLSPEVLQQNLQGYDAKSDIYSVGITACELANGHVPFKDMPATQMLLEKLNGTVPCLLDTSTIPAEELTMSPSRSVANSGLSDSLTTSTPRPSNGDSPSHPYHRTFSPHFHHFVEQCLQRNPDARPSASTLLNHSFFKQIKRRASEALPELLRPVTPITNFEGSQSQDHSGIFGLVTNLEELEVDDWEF
T2 sequence (Q9Y376 1-341 partner): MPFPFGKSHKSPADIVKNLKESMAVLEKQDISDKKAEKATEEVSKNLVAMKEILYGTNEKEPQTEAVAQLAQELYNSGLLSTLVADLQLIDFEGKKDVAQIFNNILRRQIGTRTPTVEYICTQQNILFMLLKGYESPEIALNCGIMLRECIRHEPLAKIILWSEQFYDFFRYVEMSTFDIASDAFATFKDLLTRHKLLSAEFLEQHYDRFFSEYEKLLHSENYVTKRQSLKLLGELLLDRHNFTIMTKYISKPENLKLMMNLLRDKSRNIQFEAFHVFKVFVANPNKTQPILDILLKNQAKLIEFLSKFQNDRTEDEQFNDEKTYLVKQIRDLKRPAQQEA
Description: as §1, §2

[1] = molecular target: T3, MO25α (WT) (residues 1–341) (human, UniProt Q9Y376 1-341); test: SPR; ATP+Mg2+, Kd2 (second site)
T3 chain: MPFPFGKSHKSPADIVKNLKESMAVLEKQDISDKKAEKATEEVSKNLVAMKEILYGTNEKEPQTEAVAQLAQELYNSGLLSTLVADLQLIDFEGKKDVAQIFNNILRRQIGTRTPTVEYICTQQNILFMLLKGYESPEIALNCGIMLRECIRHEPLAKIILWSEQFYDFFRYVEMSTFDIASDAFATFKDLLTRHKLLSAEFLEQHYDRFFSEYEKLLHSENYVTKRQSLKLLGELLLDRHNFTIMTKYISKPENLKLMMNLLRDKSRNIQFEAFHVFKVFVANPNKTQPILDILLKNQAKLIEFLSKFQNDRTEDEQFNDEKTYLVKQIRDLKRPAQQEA

[2] = molecular target: T4, MO25α (M260A) (residues 1–341) (human, UniProt Q9Y376 1-341, M260A); test: SPR; ATP+Mg2+, Kd2 (second site)
T4 sequence: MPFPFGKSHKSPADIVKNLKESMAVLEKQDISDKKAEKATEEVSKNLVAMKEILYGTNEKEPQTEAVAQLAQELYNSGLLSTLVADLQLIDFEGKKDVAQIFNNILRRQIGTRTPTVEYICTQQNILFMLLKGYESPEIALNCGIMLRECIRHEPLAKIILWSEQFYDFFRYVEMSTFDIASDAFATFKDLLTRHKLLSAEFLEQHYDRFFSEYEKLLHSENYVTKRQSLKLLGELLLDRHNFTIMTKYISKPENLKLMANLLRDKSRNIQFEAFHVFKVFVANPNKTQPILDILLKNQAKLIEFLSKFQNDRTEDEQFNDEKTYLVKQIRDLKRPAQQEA

[3] = molecular target: T5, MO25α (R227A) (residues 1–341) (human, UniProt Q9Y376 1-341, R227A); test: SPR; ATP+Mg2+, Kd1
T5 sequence: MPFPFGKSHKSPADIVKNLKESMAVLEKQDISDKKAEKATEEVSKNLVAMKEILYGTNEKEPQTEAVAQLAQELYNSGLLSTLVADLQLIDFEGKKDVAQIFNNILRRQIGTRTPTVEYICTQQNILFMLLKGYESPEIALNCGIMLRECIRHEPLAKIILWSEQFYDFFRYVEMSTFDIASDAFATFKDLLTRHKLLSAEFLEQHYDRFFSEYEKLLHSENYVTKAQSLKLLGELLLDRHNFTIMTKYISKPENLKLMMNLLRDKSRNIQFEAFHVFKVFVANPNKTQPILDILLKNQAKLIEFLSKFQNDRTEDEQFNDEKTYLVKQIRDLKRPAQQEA

[4] = molecular target: T3, MO25α (WT) (residues 1–341); test: SPR; ATP+Mg2+, Kd1
[5] = molecular target: T4, MO25α (M260A) (residues 1–341); test: SPR; ATP+Mg2+, Kd1
[6] = molecular target: T4, MO25α (M260A) (residues 1–341); test: SPR; ATP, Kd2 (second site)
[7] = molecular target: T4, MO25α (M260A) (residues 1–341); test: SPR
[8] = molecular target: T5, MO25α (R227A) (residues 1–341); test: SPR; ATP, Kd1
[9] = molecular target: T4, MO25α (M260A) (residues 1–341); test: SPR; ATP, Kd1
[10] = molecular target: T6, His-STRADα (residues 59–431) (human, UniProt Q7RTN6 59-431, lysines chemically methylated in the 2.35 Å crystal form only); test: crystal structure; co-expressed His-STRADα(59–431)/MO25α(1–341) complex at 7.5 mg/ml with 10 mM ATP and 1 mM MgCl2, sitting drop; unmethylated crystals 4.8 Å, lysine-methylated crystals 2.35 Å, space group P212121; details: both partners purified
T6 construct: STRADα (STe-20 Related Adaptor alpha), human, residues 59–431; Crystallised both unmethylated (4.8 Å) and lysine-methylated (2.35 Å, PDB 3GNI); unmethylated in SPR; also called N-terminally 6-His-tagged STRADα; His-tagged STRADα; source: E. coli BL21(DE3)pLysS, coexpressed with untagged MO25α, purified (Ni2+ IMAC, Superdex 75); for SPR separated from MO25α on Ni2+-agarose (500 mM NaCl washes, …)
T6 sequence (looked up): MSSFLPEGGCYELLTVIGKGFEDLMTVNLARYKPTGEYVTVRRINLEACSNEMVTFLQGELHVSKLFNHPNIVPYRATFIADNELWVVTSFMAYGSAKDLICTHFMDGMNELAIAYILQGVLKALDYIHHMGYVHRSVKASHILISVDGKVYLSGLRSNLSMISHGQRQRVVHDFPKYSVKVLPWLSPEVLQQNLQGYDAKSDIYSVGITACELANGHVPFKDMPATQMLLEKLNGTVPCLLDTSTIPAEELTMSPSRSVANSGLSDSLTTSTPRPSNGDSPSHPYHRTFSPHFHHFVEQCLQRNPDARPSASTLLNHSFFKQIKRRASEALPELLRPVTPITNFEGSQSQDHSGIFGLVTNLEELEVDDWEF

[11] = molecular target: T7, untagged STRADα (residues 59–431) (human, UniProt Q7RTN6 59-431); test: SPR; as a2 but with 100 µM ATP and 1 mM MgCl2 (MgATP); details: both partners purified
T7 construct: STRADα, human, residues 59–431; also called STRADα lacking the His tag
T7 sequence (looked up): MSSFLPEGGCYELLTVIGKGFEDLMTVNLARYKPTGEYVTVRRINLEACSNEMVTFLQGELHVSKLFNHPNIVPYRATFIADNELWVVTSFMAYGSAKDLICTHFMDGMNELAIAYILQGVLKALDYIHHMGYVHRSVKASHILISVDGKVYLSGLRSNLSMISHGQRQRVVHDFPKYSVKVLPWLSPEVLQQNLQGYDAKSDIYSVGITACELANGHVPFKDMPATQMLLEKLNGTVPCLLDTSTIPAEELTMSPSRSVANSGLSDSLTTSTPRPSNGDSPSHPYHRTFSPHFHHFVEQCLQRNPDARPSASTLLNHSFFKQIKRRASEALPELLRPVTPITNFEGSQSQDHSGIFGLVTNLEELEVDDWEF

Molecule: Nc1ncnc2c1ncn2[C@@H]1O[C@H](COP(=O)(O)OP(=O)(O)OP(=O)(O)O)[C@H]2OC3(O[C@H]21)C([N+](=O)[O-])=CC(=[N+]([O-])[O-])C=C3[N+](=O)[O-] (some centres unmarked) [TNP-ATP, 2′,3′-O-2,4,6-trinitrophenyl-ATP]
Kd (STRADα; 0.5 mM Mg2+): 1300 ± 800 nM
Kd (STRADα; No Mg2+): 1100 nM
Kd (STRADα/MO25α complex): 90 ± 30 nM

Kd [1]: 51 nM
Kd [2]: 82 nM
Kd [3]: 800 nM
Kd [4]: 5100 nM
Kd [5]: 2300 nM
Kd [6]: 30 nM
Kd [7]: 8100 nM
Kd [8]: 600 nM
Kd [9]: 1500 nM
B1: untagged STRADα (residues 59–431) (domain or fragment)
chain: MSSFLPEGGCYELLTVIGKGFEDLMTVNLARYKPTGEYVTVRRINLEACSNEMVTFLQGELHVSKLFNHPNIVPYRATFIADNELWVVTSFMAYGSAKDLICTHFMDGMNELAIAYILQGVLKALDYIHHMGYVHRSVKASHILISVDGKVYLSGLRSNLSMISHGQRQRVVHDFPKYSVKVLPWLSPEVLQQNLQGYDAKSDIYSVGITACELANGHVPFKDMPATQMLLEKLNGTVPCLLDTSTIPAEELTMSPSRSVANSGLSDSLTTSTPRPSNGDSPSHPYHRTFSPHFHHFVEQCLQRNPDARPSASTLLNHSFFKQIKRRASEALPELLRPVTPITNFEGSQSQDHSGIFGLVTNLEELEVDDWEF

binding result [10]: binds
B2: full-length MO25α (residues 1–341), untagged (natural protein, human, UniProt Q9Y376 1-341, looked up)
chain: MPFPFGKSHKSPADIVKNLKESMAVLEKQDISDKKAEKATEEVSKNLVAMKEILYGTNEKEPQTEAVAQLAQELYNSGLLSTLVADLQLIDFEGKKDVAQIFNNILRRQIGTRTPTVEYICTQQNILFMLLKGYESPEIALNCGIMLRECIRHEPLAKIILWSEQFYDFFRYVEMSTFDIASDAFATFKDLLTRHKLLSAEFLEQHYDRFFSEYEKLLHSENYVTKRQSLKLLGELLLDRHNFTIMTKYISKPENLKLMMNLLRDKSRNIQFEAFHVFKVFVANPNKTQPILDILLKNQAKLIEFLSKFQNDRTEDEQFNDEKTYLVKQIRDLKRPAQQEA
modifications: lysines chemically methylated in the 2.35 Å crystal form only
notes: MO25α, human, full length, residues 1–341; source: E. coli BL21(DE3)pLysS, coexpressed with His-STRADα, co-purified (Ni2+ IMAC, Superdex 75)

binding result [11]: binds
B3: MO25α (R227A) (residues 1–341) (natural protein, human, UniProt Q9Y376 1-341, looked up)
chain: MPFPFGKSHKSPADIVKNLKESMAVLEKQDISDKKAEKATEEVSKNLVAMKEILYGTNEKEPQTEAVAQLAQELYNSGLLSTLVADLQLIDFEGKKDVAQIFNNILRRQIGTRTPTVEYICTQQNILFMLLKGYESPEIALNCGIMLRECIRHEPLAKIILWSEQFYDFFRYVEMSTFDIASDAFATFKDLLTRHKLLSAEFLEQHYDRFFSEYEKLLHSENYVTKAQSLKLLGELLLDRHNFTIMTKYISKPENLKLMMNLLRDKSRNIQFEAFHVFKVFVANPNKTQPILDILLKNQAKLIEFLSKFQNDRTEDEQFNDEKTYLVKQIRDLKRPAQQEA
notes: MO25α, human, residues 1–341 (full length), R227A; source: E. coli, expressed individually as GST fusion, purified on glutathione-Sepharose, eluted with PreScission protease
